The source of these data is US20170226192A1.

Experiment [1] has as its target Ravn pin peptide … (Marburg virus, strain Ravn). The experiment can be described thus: pin peptide ELISA, pin printed as D5. For orientation: ELISA stands for enzyme-linked immunosorbent assay.
Experiment [2] shares this target. The experiment can be described thus: pin peptide ELISA, pin printed as D6.
Experiment [3] shares this target. As to the kind of experiment: pin peptide ELISA, pin D4.
Experiment [4] concerns the target Ravn pin peptide […] (Marburg virus, strain Ravn). As to the kind of experiment: pin peptide ELISA, pin D6; overflow value is greater than 3.9.
Experiment [5] addresses Ravn pin peptide … (Marburg virus, strain Ravn). The experiment can be described thus: pin peptide ELISA, pin D5; overflow value is greater than 3.9.
For experiment [6] the target is unchanged. As to the kind of experiment: pin peptide ELISA, pin D4; overflow value is greater than 3.9.
The target is the same in experiment [7]. As to the kind of experiment: pin peptide ELISA, pin D5.
Experiment [8] shares this target. The experiment can be described thus: pin peptide ELISA, pin D6.

B1: CAN54G2 (antibody, V domains shown)
VH: QVQLQQSGTELVRPGTSVKISCKASGYDFTNFWLGWIKQRPGHGLEWIGDIYPGGDNTYYNEKFKGKVTLTADKSSNTAYMQFSSLTSEDSAVYFCFMILYTLDYWGQGTSVTVSS
VL: not shown
In the case of B1, the figures for the Absorbance (1 hour) in experiment [1] and in experiment [2] were 2.76 and 1.85, respectively.

B2: CAN30G5 (antibody, V domains shown)
VH: EVQLVESGGGLVQPKGSLKLSCAASGFAFNSYAMHWVCQAPGKGLEWVARIRIKSGNYATSYAGSVTDRFTVSRDDSQNLFYLQMNNLKTEDTAMYYCVREWEGAMDYWGQGTSVTVSS
VL: DIVLTQSPLSLPVSLGDQASISCRSSQSLVHSNGNTYLHWYLQKPGQSPNLLIYKVSNRFSGVPDRFSGSGSGTDFTLKISRVEAEDLGVYFCSQSTHVPWTFGGGTKLEIK
Turning to B2, the Absorbance (1 hour) is 0.631 in experiment [3], above 3.9 in experiment [4] and above 3.9 in experiment [5].

B3: CAN30G4 (antibody, V domains shown)
VH: EVKLVESGGGLVKSGGSLKLSCAVSGFTFSTYAMSWVRQIPEKRLEWVATISNGGSYIYYSDSVKGRFTISRDNAKNTLYLQMSSLRSEDTAMYYCARHRESYRYDWFAYWGQGTLVTVSA
VL: DVLMTQTPLSLPVSLGDQASISCRSSQNIVHSDGNTYLEWYLQKPGQSPKLLIYKFSNRFSGVPDRFSGSGSGTDFTLKISRVEAEDLGVYYCFQGSHVPPTFGAGTKLELK
For the molecule B3, the results for the Absorbance (1 hour) in experiment [6] and in experiment [7] were above 3.9 and 1.97, respectively.

B4: CAN30G3 (antibody, V domains shown)
VH: QVQLKESGPGLVAPSQSLSITCTVSGFSLTDYGITWIRQPPGKGLEWLGVIWGGGSAYYNLVLKSRLSISKDNSKSQVFLKMNSLQTDDTAMYYCAKHRTLITTAMDYWGQGISVTVSS
VL: DVLMTQTPLSLPVSLGDQASISCRSSQNIVHSNGNTYLEWYLQKSGQSPKLLIYKVSNRFSGVPDRFSGSGSGTDFTLKISRVEAEDLGVYYCFQGSHFPWTFGGGTKLEIK
Take B4: the Absorbance (1 hour) turned out to be 1.12 in experiment [8] and 1.84 in experiment [7].
